This note sets out measurements from the Immune Epitope Database (IEDB).

For experiment [1], the target named is HLA-A*01:01. As to the kind of experiment: IEDB peptide-MHC binding, purified MHC/competitive/radioactivity; filed as Kd, often an IC50 or EC50 that approximates it; ≥ and ≤ were set here for values at or beyond the usual limits of such assays.
In experiment [2] the target is HLA-A*02:01. The experiment is described as above.
The target of experiment [3] is HLA-A*03:01. The experiment is described as above.
The target in experiment [4] is HLA-A*11:01. The description is as above.
The target of experiment [5] is HLA-A*24:02. Described as above.
Experiment [6] deals with HLA-A*02:01. As to the kind of experiment: IEDB peptide-MHC binding, purified MHC/competitive/radioactivity; ≥ and ≤ were set here for values at or beyond the usual limits of such assays. Conditions: source organism: Hepatitis B virus subtype adyw.
Experiment [7] concerns the target HLA-A*03:01. Described as above. Conditions: source organism: Human immunodeficiency virus type 1 (NDK ISOLATE).
Where [8] appears, read: source organism: Hepatitis B virus subtype adyw.
[9] abbreviates: source organism: Human immunodeficiency virus type 1 (NDK ISOLATE).
Setting [10] is: source organism: Plasmodium falciparum.

With RRYQKSTEL, the Kd in experiment [1] (source organism: Homo sapiens), in experiment [2] (source organism: Homo sapiens), in experiment [3] (source organism: Homo sapiens), in experiment [4] (source organism: Homo sapiens) and in experiment [5] (source organism: Homo sapiens) was at least 5 µM in each case.

With FLPSDFFP, the Kd (in general, a measure of binding affinity in units of concentration) in experiment [2] (setting [8]) is at least 50 µM.

For ELRSRYWAI, the Kd in experiment [5] (source organism: Influenza A virus (A/Puerto Rico/8/1934(H1N1))) is at least 5 µM.

As to EADPTGHSY, the Kd in experiment [4] (source organism: Homo sapiens) and in experiment [5] (source organism: Homo sapiens) was at least 5 µM each time.

In the case of KRYEGLTQR, the Kd in experiment [1] (source organism: Homo sapiens), in experiment [2] (source organism: Homo sapiens), in experiment [3] (source organism: Homo sapiens), in experiment [4] (source organism: Homo sapiens) and in experiment [5] (source organism: Homo sapiens) was at least 5 µM in each case.

For FLPSDFFPSVR, the IC50 (usually the concentration that gives 50% inhibition) in experiment [6] amounted to 0.305 µM.

For the sequence ILKEPVHGV, the Kd in experiment [1] (setting [9]), in experiment [3] (setting [9]), in experiment [4] (setting [9]) and in experiment [5] (setting [9]) was at least 5 µM throughout.

For the sequence FLPSDFFPS, in experiment [6], the IC50 worked out at 0.117 µM.

On to PSDFFPSV, for which the Kd in experiment [2] (setting [8]) is at least 50 µM.

SFLPSDFFPSV: the dissociation constant Kd in experiment [2] (setting [8]) was at least 50 µM.

Regarding AVDLSHFLK, the IC50 in experiment [7] was 0.149 µM. In addition, the Kd in experiment [1] (setting [9]), in experiment [2] (setting [9]) and in experiment [5] (setting [9]) was at least 5 µM throughout.

On to LLGRNSFEV, for which the Kd in experiment [1] (source organism: Homo sapiens), in experiment [3] (source organism: Homo sapiens), in experiment [4] (source organism: Homo sapiens) and in experiment [5] (source organism: Homo sapiens) was at least 5 µM in each case.

WLSLLVPFV: in experiment [1] (setting [8]), the Kd was at least 5 µM.

On to KPIVQYDNF, for which the Kd in experiment [1] (setting [10]), in experiment [2] (setting [10]), in experiment [3] (setting [10]), in experiment [4] (setting [10]) and in experiment [5] (setting [10]) was at least 5 µM in each case.
